Measured values reported in the supplement of paper PMC9170038.

System: MS2 coat protein
Test: apparent KD of MS2 coat protein; designed switch direction (-1 OFF switch, 1 ON switch): 1; higher = weaker reporter binding
How it was run: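 An oligonucleotide input, 200 uM small-molecule ligand, or no input was present during titration of SNAP-549-labelled MS2 coat protein, which was doubled from 0.7 or 1.5 nM to 3 µM. Designed RNA switches had been transcribed on Illumina chips by stalled E. coli RNA polymerase. Apparent KD per design is the median over clusters of curves fitted to normalised cluster fluorescence.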

[1] = input ligand: microRNA oligo, concentration not stated
[2] = Eterna round: R95, input ligand: FMN 200 uM
[3] = Eterna round: R95, input ligand: microRNA oligo, concentration not stated
[4] = Eterna round: R95, input ligand: none

Row | Sequence | apparent KD of MS2 coat protein (input ligand: FMN 200 uM) | apparent KD of MS2 coat protein [1] | apparent KD of MS2 coat protein (input ligand: none) | apparent KD of MS2 coat protein [2] | apparent KD of MS2 coat protein [3] | apparent KD of MS2 coat protein [4]
1 | AUUAGUAAUGCAGGAUAUGAUUAACAUGAGGAUCACCCAUGUGGUGUUGUGAGUAAGGAGAGUGAUCAGAAGGGCAUUUUUUUU [JMF's solution 28] (Eterna round: R96, puzzle: Same State NG 2) | 979 nM | 411 nM | 444 nM |  |  | 
2 | GCAGAACAUGAGGAUCACCCAUGUCUCUAAUAUUGAGGAUAUGGACACGGUAUAUCCGAACCAGAAGGCGAACUGC [SS1 Teenbexe 17] (puzzle: Same State 1) |  |  |  | 27.5 nM | 34 nM | 41.2 nM
3 | AUUGCUAGCACAGGAUAUCAUGCGAAAAUUGCGUGAGAAGGGUGUACUCUGUCAUUGCCGGAGGACAUGAGGAUCACCCAUGUC [SameState NG1 #82] (Eterna round: R96, puzzle: Same State NG 1) | 218 nM | 33.6 nM | 37.5 nM |  |  | 
4 | AUUAUUAAUGCAGGAUAUGAUUAACAUGAGGAUCACCCAUGUGGUGUUGUGAGUAAGGAGAGUGAUCAGAAGGGCAGUUUUUUU [JMF's solution 8] (Eterna round: R96, puzzle: Same State NG 2) | 614 nM | 227 nM | 262 nM |  |  | 
5 | UAUGAACAUGAGGAUCACCCAUGUGGAAAGGACACAGGAUAUCAUCUCGCACGUGCGAUAUGAGAAGGGUGAUGGU [Quedorinri] (puzzle: Same State 1) |  |  |  |  | 96.3 nM | 
6 | GUUACAUGAGGAUCACCCAUGUAUGUGUGGGAGUAAGUGUCUUAGGAUAUCUAUGAGUUAAUUUAAGAGAAGGAAGAUUGUUGU [JMF's solution 74] (Eterna round: R96, puzzle: Same State NG 3) | 97.2 nM | 63.4 nM | 77.5 nM |  |  | 
7 | AAUAUAUUAAGUGAGGAUAUCGAGGAAAAAACAUGAGGAUCACCCAUGUGGGUAAAAAAAAAAAGUGAGAAGGUGCUUAAUAUAU [Samwise Clockwise 10 - Jieux - Same State 2] (Eterna round: R96, puzzle: Same State 2) | 34.9 nM | 40.1 nM | 69.1 nM |  |  | 
8 | CCGCCGGGAACCCGGCGAAAACAUGAGGAUCACCCAUGUACACAGGAUAUCGUGACAUUAACAAACGAGAAGGGUGGCCGAGAC [Lelateen] (Eterna round: R96, puzzle: Same State NG 3) | 453 nM | 189 nM | 182 nM |  |  | 
9 | GGAUGAUUGACAGGAUAUCAUUUGUAAAUUGGUUGAGAAGGGUCGAUUACUUACACGACCUGUUACAUGAGGAUCACCCAUGUU [SameState NG1 #3] (Eterna round: R96, puzzle: Same State NG 1) | 34.9 nM | 20.5 nM | 31 nM |  |  | 
10 | GGAGAGAGAGCACAGGAUAUUUAAGGAGAGACAUGAGGAUCACCCAUGUGAGAGAGAGAGGAGAGAGAGAAGGGUGAGAGAGAGG [Altered State 2-17 - Jieux - Same State 2] (puzzle: Same State 2) |  |  |  | 109 nM | 79.1 nM | 83.9 nM
11 | AAUAAUCUAUCUGAGGAUAUCAUGAAAUAAACAUGAGGAUCACCCAUGUGCAGGAAAACUGCAUAUGAGAAGGCAGAUAGAUUGA [salish99_ss2_r3_020] (puzzle: Same State 2) |  |  |  | 43.8 nM | 551 nM | 1160 nM
12 | CGGCGCUGUUGAGAGGAUAUGCGGUGAUGGACAUGAGGAUCACCCAUGUUAGCGAUAGCAUUACGGUAGAAGGCUCUACAGCUGC [Soteed Omei mod 6] (puzzle: Same State 2) |  |  |  |  | 18.9 nM | 
13 | UAGAGAGGAAGCGAGGAUAUCGUGUUAGGUACAUGAGGAUCACCCAUGUUUUAGGUAGAGGUAGGCGAGAAGGCGCAGGAGAAGA [JR_SS2_Sub090] (puzzle: Same State 2) |  |  |  | 25.8 nM | 32.9 nM | 34 nM
14 | GGUAGGUUACUACCAAACAUGAGGAUCACCCAUGUAGGUGGGAAGGAUAUGGUACCUUUUAGGUACCAGAAGGUCCAUACGAUC [NGss mod of JL's mod of Fisker 2] (Eterna round: R96, puzzle: Same State NG 3) | 451 nM | 325 nM | 562 nM |  |  | 
15 | UAGUGCGUUAGAGGAUAUUCUAAAAUAAAAUAAAAGACAUGAGGAUCACCCAUGUAUGUACAUGGGAAGAAGGCUGAUGUGCUA [Omei SS(NG)2 Bv1] (Eterna round: R96, puzzle: Same State NG 2) |  | 296 nM |  |  |  | 
16 | UGUUGUUAAUUAGGAUAUGGUCACAUGAGGAUCACCCAUGUAAUGUCGAUGCUAUGUGGACACGAUCAGAAGGAAUGGCUAACA [SameState NG2 #93] (Eterna round: R96, puzzle: Same State NG 2) | 21.3 nM | 69.7 nM | 102 nM |  |  | 
17 | UGUACCUUCACAGGAUAUCAUGCGAAAAUUGCGUGAGAAGGGUGAAUACUGUCUUACUAAGAGCACAUGAGGAUCACCCAUGUA [SameState NG1 #58] (Eterna round: R96, puzzle: Same State NG 1) | 269 nM | 198 nM | 296 nM |  |  | 
18 | AGAUCAUGACGAGGAUAUGGUACAUGAGGAUCACCCAUGUAUGUAUCAUAACGCGAAUGACGAAACCAGAAGGCGUCGUGAUCA [Mat - Same State NG 2 - JL mod - D43] (Eterna round: R96, puzzle: Same State NG 2) | 8.74 nM | 11.9 nM | 15.8 nM |  |  | 
19 | UGUUGUAUUACAGGAUAUCUAGUAUAUUUAUUUAGAGAAGGGUAUUCACAUGAGGAUCACCCAUGUAUAUACGAGGAAGUUGUG [JMF's solution 37] (Eterna round: R96, puzzle: Same State NG 1) |  | 29.6 nM |  |  |  | 
20 | GUUACAUGAGGAUCACCCAUGUAUGUGUGGGAGUAAGUGUCUUAGGAUAUCUAGUAUUUAGUUUAAGAGAAGGAAGAUUGUUGU [JMF's solution 61] (Eterna round: R96, puzzle: Same State NG 3) | 127 nM | 90 nM | 88.2 nM |  |  | 
21 | AUAAGUUCGAUGCUCGUCUCUCCGUACAAACAUGAGGAUCACCCAUGUGAUUGGACAAAAGCCCAAUCAGUAUGGCC [Cebeince] (puzzle: Sensor for hsa-mir-208a) |  |  |  | 35.9 nM | 21.4 nM | 40.9 nM
22 | CGUCCAGCCUGAGCUGGACAAAAGCAUGUACAUGAGGAUCACCCAUGUUCAUGUACAAGCUUUUUGCUCGUCUUAGG [salish99_208a_r3_074] (puzzle: Sensor for hsa-mir-208a) |  |  |  | 593 nM | 20.1 nM | 744 nM
23 | CUCCGGAAGCGAGGAUAUGCAGAGGAUCACCCUGCAGAAGGCGCAAAAGCGAGGAUAUGCAGAGGAUCACCCUGCAGAAGGCGC [pwkr ssNG DX.33] (Eterna round: R96, puzzle: Same State NG 1) | 10.2 nM | 33.3 nM | 39.9 nM |  |  | 
24 | GGUGCCAAUAAAGCCUACAUGAGGAUCACCCAUGUAUGUAGGCAGGAUAUCGUUUGCAAAGCAAACGAGAAGGGCUGAGGCACC [Mat - Same State NG 3 - JL Mod - D52] (Eterna round: R96, puzzle: Same State NG 3) | 18.4 nM | 39.8 nM | 38.8 nM |  |  | 
25 | GGUGGGUUGCUGCCGGCACAUGAGGAUCACCCAUGUUUUGGGAAGGAUAUGGUCCCUCUUUGGUGCCAGAAGGUCCCGUUGGUC [salish99_SSNG3_r04_715] (Eterna round: R96, puzzle: Same State NG 3) | 232 nM | 75.3 nM | 165 nM |  |  | 
26 | ACCAAUCCAAUAAAACAAGCGUGCUCGUCACAUGAGGAUCACCCAUGUUCAAGCGCUGUUCCUAAUUCCUCAGCGCC [Ortiat] (puzzle: Sensor for hsa-mir-208a) |  |  |  | 72.3 nM | 22.3 nM | 67.7 nM
27 | GGAUGAUAGACAGGAUAUUGAUUGUAAUUAGGUCAAGAAGGGUCAAUGAUUUAAACGACCAGUUACAUGAGGAUCACCCAUGUU [JR_SSNG1_Sub027] (Eterna round: R96, puzzle: Same State NG 1) | 160 nM | 208 nM | 315 nM |  |  | 
28 | GACAAUCUAUCUGAGGAUAUCAUGAAAAAAACAUGAGGAUCACCCAUGUGCAGGAAAACUGCAUAUGAGAAGGCAGAUAGAUUGA [salish99_SS2_r3_009] (Eterna round: R96, puzzle: Same State 2) |  | 453 nM |  |  |  | 
